Consider two molecules from patent publication US20230110287A1 (SCOUT BIO, published 2023).

For experiment [1], the target named is T1, mouse (murine) NGF (mouse, UniProt P01139 122-241, limits assumed).
T1 construct: also called muNGF; beta muNGF
The experiment is described as follows: ELISA on plate-coated murine NGF (0.1 ug/ml), detection with goat anti-feline IgG-HRP, Abs 450. On the procedure: ELISA plates were coated with 0.1 μg/ml mouse (murine) NGF (muNGF) and blocked with PBS/0.05% Tween 20/1% BSA. muNGF-coated wells were then incubated for 1 hour at room temperature with antibody preparations, diluted in PBS/0.05% Tween 20/1% BSA (100 μl/well). Antibody concentrations ranging from 100 ng/ml to 1.56 ng/ml were used to establish a binding curve. After washing, the plates were incubated with a 1/5,000 dilution of goat anti-feline IgG-HRP in PBS/0.05% Tween 20/1% BSA. Plates were washed with PBS/0.05% Tween 20 and developed by the addition of TMB substrate. Development was stopped by the addition of 2M H₂SO₄, absorbance read at 450 nm and background values were subtracted from the absorbance readings.
Background: In an ELISA, binding on a coated surface is turned into a signal by an enzyme label.

Experiment [2] has as its target NGF (added at 10 ng/mL to TF-1 cell cultures). The experiment can be described thus: cell-based or functional assay.
Experiment [3] addresses T1, mouse (murine) NGF. The experiment can be described thus: ELISA on murine NGF, Abs 450.

T1 sequence (P01139 122-241 limits assumed): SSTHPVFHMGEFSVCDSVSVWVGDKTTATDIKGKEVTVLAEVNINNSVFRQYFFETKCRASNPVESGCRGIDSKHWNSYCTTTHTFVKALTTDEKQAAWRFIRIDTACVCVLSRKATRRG
NGF (added at 10 ng/mL to TF-1 cell cultures), sequence (P01138 122-241): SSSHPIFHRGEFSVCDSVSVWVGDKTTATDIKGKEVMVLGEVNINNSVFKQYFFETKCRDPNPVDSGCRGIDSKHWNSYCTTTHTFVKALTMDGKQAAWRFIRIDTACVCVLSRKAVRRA

B1: felinized anti-NGF monoclonal antibody Fe1 (antibody, V domains shown)
VH: QVQLMESGADLVQPSESLRLTCVASGLSLTNNNVNWVRQAPGKGLEWMGGVWAGGATDYNSALKSRLTITRDTSKNTVFLQMHSLQSEDTATYYCARDGGYSSSTLYAMDAWGQGTTVTVSA
VL: DIEMTQSPLSLSATPGETVSISCRASEDIYNALAWYLQKPGRSPRLLIYNTDTLHTGVPDRFSGSGSGTDFTLKISRVQTEDVGVYFCQHYFHYPRTFGQGTKLELKR
notes: Expressed in CHO cells
For B1, the binding result in experiment [1] was “binds”. Further, the “IC50 (read off the curve), NGF-driven TF-1 cell proliferation” value in experiment [2] was around 0.05 µg/mL.

B2: caninized anti-NGF monoclonal antibody SCB01 (antibody, V domains shown)
VH: EVTLQESGPGLVKPSQTLSLTCVVSGLSLTNNNVNWVRQRPGRGLEWMGGVWAGGATDYNSALKSRISITRDTAKNQVSLQLSSMTTEDTAVYYCARDGGYSSSTLYAMDAWGQGTLVTVSS
VL: EIVMTQSPASLSLSQEEKVTITCRASEDIYNALAWYQQKPGQAPKLLIYNTDTLHTGVPSRFSGSGSGTDYSFTISSLEPEDVAVYFCQHYFHYPRTFGAGTKVELK
As for B2, in experiment [3], the binding result is “binds”.
